Measured values taken from US20140050662.

Test system: PSA activatable agent A10 (compound A10)

For “enzymatically active prostate specific antigen”, the “fluorescence activation (kinetic fluorescence readings, cleavage of the quenched peptide)” value was “Test agent (compound A10-0.5 µM final concentration of agent) was activated in the presence of active PSA (0.1 µM final concentration of activated enzyme)”.
